# From patent JP2024513915A (dated 2024)
# Target: CD33 (UniProt P20138 18-364, limits assumed)
# Assay: cell-based or functional assay
# Chain of CD33 (P20138 18-364 limits assumed): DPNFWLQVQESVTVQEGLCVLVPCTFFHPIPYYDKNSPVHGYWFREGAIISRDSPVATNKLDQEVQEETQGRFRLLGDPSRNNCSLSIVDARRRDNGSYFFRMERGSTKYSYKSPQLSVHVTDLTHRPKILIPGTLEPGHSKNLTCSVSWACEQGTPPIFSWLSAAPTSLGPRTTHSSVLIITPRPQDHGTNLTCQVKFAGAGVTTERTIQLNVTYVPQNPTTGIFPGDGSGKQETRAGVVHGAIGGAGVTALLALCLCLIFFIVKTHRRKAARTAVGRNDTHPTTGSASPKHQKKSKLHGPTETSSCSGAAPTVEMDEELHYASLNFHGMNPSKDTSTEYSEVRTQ
binder,measurement,value
AMV564 (bispecific antibody) DIQMTQSPSSLSASVGDRVTITCRSSTGAVTTSNYANWVQQKPGKAPKALIGGTNKRAPGVPSRFSGSLIGDKATLTISSLQPEDFATYYCALWYSNLWVFGQGTKVEIKGGSGGSQVQLVQSGAEVKKPGASVKVSCKASGYTFTSYDINWVRQAPGQGLEWMGWMNPNSGNTGFAQKFQGRVTMTRDTSTSTVYMELSSLRSEDTAVYYCARDRANTDYSLGMDVWGQGTLVTVSSGGSGQSVLTQPPSASGTPGQRVTISCSGSRSNIGSNTVNWYQQLPGTAPKLLIYGNNQRPSGVPDRFSGSKSGTSASLAISGLQSEDEADYYCATWDDSLIGWVFGGGTKLTVLGGSGGSEVQLVESGGGLVQPGGSLRLSCAASGFTFSTYAMNWVRQAPGKGLEWVGRIRSKYNNYATYYADSVKDRFTISRDDSKNSLYLQMNSLKTEDTAVYYCARHGNFGNSYVSYFAYWGQGTLVTVSS,CD4+及びCD8+T細胞増殖,> 2 fold
